Results taken from PMC12080732 (mAbs, 2025).

Molecular target: active trimeric human TNFα (human, UniProt P01375 77-233)
Test: SPR

Sequence of active trimeric human TNFα (P01375 77-233): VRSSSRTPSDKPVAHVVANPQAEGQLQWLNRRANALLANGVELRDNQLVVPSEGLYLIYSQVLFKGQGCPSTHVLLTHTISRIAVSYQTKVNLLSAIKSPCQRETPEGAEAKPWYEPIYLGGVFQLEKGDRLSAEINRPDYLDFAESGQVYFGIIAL

| Kd [nM] | koff [s⁻¹] | Binder |
| --- | --- | --- |
| 0.077 | 2.87e-05 | TNFI-Nb2 (VHH) VHH: QVQLVESGGGLVQPGGSLRLSCAASGFAFNDHWMYWVRQAPGKELEWVSEINTNGLITKYADFVKGRFTVSRDNAKNTLYLQMNSLEPEDTAVYSCSRNQIGTLRGQGTQVTVSS |
| 0.392 | – | TNFI-Nb3 (VHH) VHH: QVQLVESGGGLVQPGGSLRLSCAASGFAFNDHWMYWVRQAPGKELEWVSEINTNGLITKYADFVKGRFTVSRDNAENTLYLQMNSLEPEDTAVYSCSRNQIGTLRGQGTQVTVSS |
| 0.219 | – | TNFI-Nb1 (VHH) VHH: EVQLVESGGGLVQPGGSLRLSCAASGFAFNDHWMYWVRQAPGKELEWVSEINTNGLITKYADFVKGRFTVSRDNAKNTLYLQMDSLRPEDTAVYSCSRNQIGTLRGQGTQVTVSS |
